Test results reported in paper PMC6884526 (2019).

Target: MBP-TrkB-454-821 (Rattus norvegicus (Rat), UniProt Q63604)
Assay: pull-down (MBP-TrkB on amylose resin, GST-ActI-SIPA1L2 prey, immunoblot)

Chain of MBP-TrkB-454-821 (Q63604 454-821): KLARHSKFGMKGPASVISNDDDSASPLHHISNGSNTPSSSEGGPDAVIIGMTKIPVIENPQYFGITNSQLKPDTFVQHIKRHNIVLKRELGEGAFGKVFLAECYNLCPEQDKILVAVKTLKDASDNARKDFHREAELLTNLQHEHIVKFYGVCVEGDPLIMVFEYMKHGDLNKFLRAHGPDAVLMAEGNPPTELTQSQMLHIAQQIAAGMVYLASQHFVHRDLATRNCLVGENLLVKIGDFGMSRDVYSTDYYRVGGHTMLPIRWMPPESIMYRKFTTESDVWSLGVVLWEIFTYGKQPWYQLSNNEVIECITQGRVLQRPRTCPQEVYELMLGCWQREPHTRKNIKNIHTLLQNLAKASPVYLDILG

B1: GST-ActI-SIPA1L2-1-624 (protein)
chain: MSDPRPSQAEKHKLGRAASKFKDPSRAMQSDDYFARKFKAINGSMGPATLNTSSLSEGGGGGGGPANGTPAVPKMGVRARVSEWPPKKDCSKDLACKTLWESRSQSSYESATSIIQNGQNDQVDRQQEEQLDLDFVEAKYTIGDIFVHSPQRGLHPIRQRSNSDITISDIDTEDVLDQHAVNPNTGAALHREYGSTSSIDRQGLSGENVFAMLRGYRIESYDPKVTSSFGFPDFFPCDTAISPSLHAAAQISRGEFVRISGLDYMDGGLLMGRDRDKPFKRRLKSESVETSLFRKLRTVKSEHETFKFTSDLEEGRLDRGIRPWSCQRCFAHYDVQSILFNINEAMATRASVGKRKNITTGASAASQTPVPVGPAGGCESPLGSKEDLNAKENPDADEGDGKSNDLVLSCPYFRNETGGEGDRRIALSRANSASFSSGESCSFESSLSSHCTNAGVSVLEVPRENQPIHREKVKRYIIEHVDLGAYYYRKFFYGKEHQNYFGIDENLGPVAVSIRREKVEDPREKEGSQFNYRVAFRTSELTTLRGAILEDAVPSTARHGTARGLPLKEVLEYVIPELSIPCLRQAANSPKVPEQLLKLDEQGLSFQHKIGILYCKAGQSTEEE
- binding result: binds
